Laboratory results from patent US11827690B2, “ApoC-II mimetic peptides” (THE UNITED STATES OF AMERICA, as represented by the …, priority 2017, dated 2023).
Non-standard residues stand in square brackets, D forms with d. No end group written: not given here. *: point of attachment. Stearoyl = CCCCCCCCCCCCCCCCCC(=O)*; Palmitoyl = CCCCCCCCCCCCCCCC(=O)*; Nle = CCCC[C@H](N)C(=O)O; Aib = CC(C)(N)C(=O)O

Assays:
bovine LPL [1] = biological target: T1, bovine LPL (Bos taurus, UniProt P11151); assay: in vitro LPL assay using apoC-II deficient patient sera as substrate; assay type: biochemical; conditions: for effect of lipidation on ability of C2thirdhelix to promote TG hydrolysis: FIG. 9; for promoting TG hydrolysis in the presence of LPL: FIG. 6; for LPL activation / TG hydrolysis: FIG. 52
T1 sequence (P11151 29-478): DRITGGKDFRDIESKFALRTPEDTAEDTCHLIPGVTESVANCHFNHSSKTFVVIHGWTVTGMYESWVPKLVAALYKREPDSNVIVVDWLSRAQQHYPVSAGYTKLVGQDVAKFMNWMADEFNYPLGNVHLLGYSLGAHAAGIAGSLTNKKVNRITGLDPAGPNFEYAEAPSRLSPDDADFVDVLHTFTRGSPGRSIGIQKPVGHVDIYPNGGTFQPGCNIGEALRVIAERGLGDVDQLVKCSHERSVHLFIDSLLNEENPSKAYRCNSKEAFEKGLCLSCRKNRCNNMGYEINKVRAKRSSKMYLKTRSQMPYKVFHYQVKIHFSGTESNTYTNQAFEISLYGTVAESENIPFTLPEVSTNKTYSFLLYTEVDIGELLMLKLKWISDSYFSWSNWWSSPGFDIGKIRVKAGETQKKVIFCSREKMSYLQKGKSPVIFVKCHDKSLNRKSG
Procedure: (§1) Preparation of LPL: frozen stock of 10 μL of 0.5 mg/mL bovine LPL was used and diluted 1:100 (10 μL+990 μL of PBS).
Preparation of 20% Intralipid: 2000 mg/dL TG Intralipid was used to prepare 3 mg/dL TG Intralipid by diluting 1.5 μL of the stock with 998.5 μL PBS, or by diluting the stock 1:10 first and then mixing 15 μL of the diluted stock with 985 μL PBS. When apoC-II deficient human serum was used as a substrate, a frozen 10 μL aliquot of 1711 mg/dL (TG) was diluted by adding 990 μL PBS (1:100 dilution).
(§2) Preparation of free fatty acid (NEFA) assay: NEFA reagents were purchased from Wako Diagnostics, Wako Life Sciences, Inc. Reagent A was prepared by mixing Coloring Reagent A with Solvent A (225 μL per well). Reagent B was prepared by mixing Coloring Reagent B with Solvent B (75 μL per well). 5 nmoL oleic acid standard was prepared by diluting 20 μL of 1 mM oleic acid stock (WAKO NEFA standard solution) with 180 μL of 0.2% BSA.
(§3) LPL activity assay: 10 μL of Intralipid, human plasma sample, or mouse plasma sample was added in each well using repeater pipette. 10 μL (or 15 μL in the wells with no LPL control) of PBS and 10 μL of 1% BSA was added in each well using repeater pipette. 10 μL of peptides were added to corresponding wells in vertical triplicates (lowest concentration is on a left, highest is on the right). The plate was spun down at 1000 RPM for 10 seconds to mix and to remove the solutions from the wall of each well. The plate was put on ice and 5 μL of LPL was added using repeater pipette. The plate was spun down again at 1000 RPM for 10 seconds. The plate was covered and put back on ice for an incubation of 30 min. The plate was then moved to 37° C. and incubated for 1 hour.
(§4) Free fatty acids (NEFA) assay: 45 μL of 5 nmoL standard and 0 nmoL control (0.2% BSA) were added to corresponding wells. 225 μL of reagent A was added in each well using the reagent tray and 12-channel pipette. The plate was incubated for 10 min before 75 μL of reagent B was added to each well using the reagent tray and 12-channel pipette. The plate was not covered due to the high volume. The absorbance at 550 nm and 660 nm was measured.

apoC-II knockout mice = assay: plasma lipids of apoC-II knockout mice after peptide injection; assay type: in vivo
Procedure: C57Bl/6 mice (wild-type), apoC-II knockout (apoC-II KO) mice, and apoC-III transgenic mice were used for in vivo study. The C57Bl/6 mice (wild-type) were purchased from Taconic Biosciences Inc. The apoC-II KO mice were created as described in Sakurai et al., J Pharmacol Exp Ther 356:341-353, 2016. The apoC-III transgenic mice were generated by overexpressing human apoC-III in C57Bl/6 mice. See Qu et al., J. Lipid Res. 48:1476-1487, 2007.
Mice were fasted overnight (approximately 12 hours) before the study and 6 hours during the study, the next day. The apoC-II mimetic peptides were synthetically produced and free of biological contamination (not available as FDA approved compounds/treatment). […] W.) administered either subcutaneous injection (S.Q. or S.C.), intraperitoneal injection (I.P.) or intravenous injection (I.V.) (in a sterile, pharmaceutical grade PBS solution at a volume ≤200 μL) as described in Sakurai et al., J Pharmacol Exp Ther 356:341-353, 2016.

bovine LPL [2] = biological target: T1, bovine LPL; assay: in vitro LPL assay using hypertriglyceridemia patient sera as substrate; assay type: biochemical; conditions: patient sera TG about 1000 mg/dL to about 1700 mg/dL, FIGS. 15A-D
Procedure: as §1, §2, §3, §4

[3] = test system: VLDL isolated from human plasma; assay: ApoC-III displacement study in VLDL isolated from human plasma; assay type: binding; conditions: SDS PAGE
Procedure: VLDL or chylomicrons isolated from human plasma were incubated with an apoC-II mimetic peptide for 1 hour at 37° C. and washed 3 times with PBS using spin filter with 100 kDa cutoff membrane. […] ApoC-I, apoC-II, apoC-III, and apoE bands were identified by their corresponding size.

[4] = concentrations from 100 pM to 10 μM, FIG. 12
[5] = 0.25 μmol/kg of body weight intraperitoneal, FIG. 24

## AKC18STYTGIFTDQVLSVLKGEE (AK(Stearoyl)STYTGIFTDQVLSVLKGEE) [C2thirdhelixStearylpos2]
Bovine LPL [1]
  effect of lipidation on ability of C2thirdhelix to promote TG hydrolysis: lipidation enhanced the ability of C2thirdhelix to promote TG hydrolysis

## AMSTYTGIFTDQVLSVLKC18GEE (AMSTYTGIFTDQVLSVLK(Stearoyl)GEE) [C2thirdhelixStearylpos17]
Bovine LPL [1]
  effect of lipidation on ability of C2thirdhelix to promote TG hydrolysis: lipidation enhanced the ability of C2thirdhelix to promote TG hydrolysis

## C18AMSTYTGIFTDQVLSVLKGEE (Stearoyl-AMSTYTGIFTDQVLSVLKGEE) [C2thirdhelixStearylpos1]
Bovine LPL [1]
  effect of lipidation on ability of C2thirdhelix to promote TG hydrolysis: lipidation enhanced the ability of C2thirdhelix to promote TG hydrolysis

## C18DYLKAVFEKKC18RDLYSKFTAAnLSTYTGIFTDQVLSVLKGEE (Stearoyl-DYLKAVFEKK(Stearoyl)RDLYSKFTAA[Nle]STYTGIFTDQVLSVLKGEE) [bi-acyl-Delta4]
Bovine LPL [1]
  promoting TG hydrolysis in the presence of LPL: capable of promoting TG hydrolysis in the presence of LPL

## C18DYLKAVFEKLRDLYSKFTAAnLSTYTGIFTDQVLSVLKGEE (Stearoyl-DYLKAVFEKLRDLYSKFTAA[Nle]STYTGIFTDQVLSVLKGEE) [mono-acyl-Delta4]
Bovine LPL [1]
  promoting TG hydrolysis in the presence of LPL: capable of promoting TG hydrolysis in the presence of LPL

## DKVKEFLSEYWEKAKEFAPAVSTYTGIFTDQVLSVLKGEE [Delta13-31-PV]
Bovine LPL [1]
  LPL activation / TG hydrolysis: promoted TG hydrolysis in vitro in a dose-dependent manner

## DYLKAVFEKKC18RDLYSKFTPAMSTYTGIFTDQVLSVLKGEE (DYLKAVFEKK(Stearoyl)RDLYSKFTPAMSTYTGIFTDQVLSVLKGEE) [Delta4b-2]
Bovine LPL [1]; [4]
  TG hydrolysis: promoted TG hydrolysis in a dose-dependent manner

## DYLKAVFEKLRDLYSKFFPAMSTYTGIFTDQVLSVLKGEE [Delta4b T18F]
Bovine LPL [1]; [4]
  TG hydrolysis: promoted TG hydrolysis in a dose-dependent manner

## DYLKAVFEKLRDLYSKFTAAKC16STYTGIFTDQVLSVLKGEE (DYLKAVFEKLRDLYSKFTAAK(Palmitoyl)STYTGIFTDQVLSVLKGEE) [Delta4c]
Bovine LPL [1]; peptide concentrations from 10 pM to 100 μM, FIG. 13
  TG hydrolysis: promoted TG hydrolysis

## DYLKAVKC18EKLRDLYSKFTPAMSTYTGIFTDQVLSVLKGEE (DYLKAVK(Stearoyl)EKLRDLYSKFTPAMSTYTGIFTDQVLSVLKGEE) [Delta4b-1]
Bovine LPL [1]; [4]
  TG hydrolysis: promoted TG hydrolysis in a dose-dependent manner

## DYLKEVAibEKLRDLYEKAibFPAVSTYTGIFTDQVLSVLKGEE (DYLKEV[Aib]EKLRDLYEK[Aib]FPAVSTYTGIFTDQVLSVLKGEE) [Delta6T18F-PV-AIB7,17]
Bovine LPL [1]
  LPL activation / TG hydrolysis: activated LPL in vitro

## DYLKEVFEKLRDLYEKFFPAVSTYTGIFTDQVLSVLKGEE [Delta6T18F-PV]
Bovine LPL [1]
  LPL activation / TG hydrolysis: activated LPL in vitro
apoC-II knockout mice; 0.1 μmol/kg intraperitoneally, after the peptide injection
  time of maximum reduction of plasma TG: about 6 hours
apoC-II knockout mice; 0.1 μmol/kg of body weight intraperitoneally, FIG. 53
  plasma TG: rapid reduction of plasma TG

## DYLKEVFEKLRDLYEKFTAALSTYTGIFTDQVLSVLKGEE (not fully specified) [Delta6L]
Bovine LPL [2]
  LPL activation: activated LPL in vitro

## DYLKEVFEKLRDLYEKFTAAnLSTYTGIFTDQVLSVLKGEENH2 (DYLKEVFEKLRDLYEKFTAA[Nle]STYTGIFTDQVLSVLKGEE-NH2; N-terminus assumed; SMILES CCCC[C@H](NC(=O)[C@H](C)NC(=O)[C@H](C)NC(=O)[C@@H](NC(=O)[C@H](Cc1ccccc1)NC(=O)[C@H](CCCCN)NC(=O)[C@H](CCC(=O)O)NC(=O)[C@H](Cc1ccc(O)cc1)NC(=O)[C@H](CC(C)C)NC(=O)[C@H](CC(=O)O)NC(=O)[C@H](CCCNC(=N)N)NC(=O)[C@H](CC(C)C)NC(=O)[C@H](CCCCN)NC(=O)[C@H](CCC(=O)O)NC(=O)[C@H](Cc1ccccc1)NC(=O)[C@@H](NC(=O)[C@H](CCC(=O)O)NC(=O)[C@H](CCCCN)NC(=O)[C@H](CC(C)C)NC(=O)[C@H](Cc1ccc(O)cc1)NC(=O)[C@@H](N)CC(=O)O)C(C)C)[C@@H](C)O)C(=O)N[C@@H](CO)C(=O)N[C@H](C(=O)N[C@@H](Cc1ccc(O)cc1)C(=O)N[C@H](C(=O)NCC(=O)N[C@H](C(=O)N[C@@H](Cc1ccccc1)C(=O)N[C@H](C(=O)N[C@@H](CC(=O)O)C(=O)N[C@@H](CCC(N)=O)C(=O)N[C@H](C(=O)N[C@@H](CC(C)C)C(=O)N[C@@H](CO)C(=O)N[C@H](C(=O)N[C@@H](CC(C)C)C(=O)N[C@@H](CCCCN)C(=O)NCC(=O)N[C@@H](CCC(=O)O)C(=O)N[C@@H](CCC(=O)O)C(N)=O)C(C)C)C(C)C)[C@@H](C)O)[C@@H](C)CC)[C@@H](C)O)[C@@H](C)O) [Delta6-NH]
[3]
  apoC-III displacement in VLDL: capable of displacing apoC-III
apoC-II knockout mice; [5]
  plasma TG: significant reduction of plasma TG

## DYLKEVFEKLRDLYEKFTPALSTYTGIFTDQVLSVLKGEE [Delta6PL]
Bovine LPL [2]
  LPL activation: activated LPL in vitro

## DYLKEVFEKLRDLYEKKC18TAAnLSTYTGIFTDQVLSVLKGEE (DYLKEVFEKLRDLYEKK(Stearoyl)TAA[Nle]STYTGIFTDQVLSVLKGEE) [Delta6b-A]
[3]
  apoC-III displacement in VLDL: capable of displacing apoC-III
apoC-II knockout mice; [5]
  plasma TG: significant reduction of plasma TG

## DYLKEVFEKLRDLYEKKC18TPAnLSTYTGIFTDQVLSVLKGEE (DYLKEVFEKLRDLYEKK(Stearoyl)TPA[Nle]STYTGIFTDQVLSVLKGEE) [Delta6b-P]
[3]
  apoC-III displacement in VLDL: capable of displacing apoC-III
apoC-II knockout mice; [5]
  plasma TG: significant reduction of plasma TG
